Test: yeast display, Sf9 membrane polyspecificity reagent, FACS + sequencing; frameworks hold sequencing errors
In short: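 Galactose-induced (36–48 hours) yeast carrying a synthetic nanobody display library were exposed to 10% biotinylated, detergent-solubilized Sf9 membrane reagent at 4 °C for 1 hour. FACS followed streptavidin microbead enrichment, using low and high (top ~1%) gates for expression (anti-HA) and reagent binding (streptavidin). Colony PCR, MiSeq 2 × 250 sequencing and CDR-length filtering followed. Labels for polyreactivity reflect the gate of origin.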

With “QVQLVESGGGLVQAGGSLRLSCAASGFTFDSYAMGRYRQAPGKERELVAAISSSGGDSTSYADSVKGRFTISRDNAKNTVYLQMNRLKPEDTAVYYCADEQFYSFIVDDTWFSGFDYWGQGTQVTVSS” as the sequence, how does the “polyreactivity (PSR sort gate)” value read?
The value was “low polyreactivity”.

Which “polyreactivity (PSR sort gate)” value does the source give for “QVQLVESGGGLVQAGGSLRLSCAASGFTFDSYAMGWYRPAPGKERELVAAITSDGSTYYADSVKGRFTISRDNAKNTVYLQMNSLKPEDTAVYYCAARSTARYGYWGQGTQVTVSS” here?
Its value is “low polyreactivity”.

For “QVQLVESGGGLVQAGGSLRLSCAASGFTFDSYAMGWYRQAPGKERELVAAITWDGGSTYYADSVKGRYTISRDNAKNTVYLQMNSLKPEETAVYYCAADFGTISIDVYSWMDYWGQGTQVTVSS”, which “polyreactivity (PSR sort gate)” value is on record?
Its value is “low polyreactivity”.

Which “polyreactivity (PSR sort gate)” value does the source give for “QVQLVESGGGLVQAGGSLRLSCAASGFTFDTNAMGWYRQAPGKERELVAAISWGGDTTYYADSVKGRFTISRDNAKNTVYLQMNSLKPEDTAVYYCNVYWYDWWGYDYWGQGTQVTVSS” here?
Its value is “high polyreactivity”.

With “QVQLVESGGGLVQAGGSLRLSCAASGFTFDWNAMGWYRQAPGKERELVAAISSSTGRTYYADSVKGRFTISRDNAKNTVYLQMNSLKPEDTAVYYCAASLGGRAGNYWGQGTQVTVSS” as the sequence, how does the “polyreactivity (PSR sort gate)” value read?
Its value is “high polyreactivity”.

Which “polyreactivity (PSR sort gate)” value does the source give for “QVQLVESGGGLVQAGGSLRLSCAASGFTFDWNGMGWYRQAPGKEREFVAGITWSGTSTYADSVKGRFTISRDNAKNTVYLQMNSLKPEDTAVYYCAAVSSKGNRHEYDYWGQGTQVTVSS” here?
Its value is “low polyreactivity”.

For “QVQLVESGGGLVQAGGSLRLSCAASGFTFDYNAMGWYRQAPGKEREFDAAISTGGSTKYADSVKGRFTISRDNAKNTVYLQMNSLKPEDTAVYYCNKQTTDRGFYDWKWSGFDYWGQGTQVTVSS”, which “polyreactivity (PSR sort gate)” value is on record?
The value was “low polyreactivity”.

Which “polyreactivity (PSR sort gate)” value does the source give for “QVQLVESGGGLVQAGGSLRLSCAASGFTFDYNAMGWYRQAPGKERELVAGITSGGRTYYADSVKGRFTISRDNAKNTVYLQMNSLKPEDTAVYYCAATPEPPAYGTPLVPYSYDYWGQGTQVTVSS” here?
Its value is “low polyreactivity”.

Which “polyreactivity (PSR sort gate)” value does the source give for “QVQLVESGGGLVQAGGSLRLSCAASGFTFDYYAMGWYRQAPGKERELVAAISKSGGSTYYADSVKGRFTISRDNAKNTVYLQLISLKPEDTAVYYCAAYTYVRSKNKGGDYWGQGTQVTVSS” here?
Its value is “high polyreactivity”.

Which “polyreactivity (PSR sort gate)” value does the source give for “QVQLVESGGGLVQAGGSLRLSCAASGFTFDYYAMGWYRQAPGKERELVAAISRAGSTNYADSVKGRFTISRDNAKNTVYLQMNSLKPEDTAVYYCNKGYHSWSRLSQFGWSYDYWGQGTQVTVSS” here?
Its value is “high polyreactivity”.

Which “polyreactivity (PSR sort gate)” value does the source give for “QVQLVESGGGLVQAGGSLRLSCAASGFTFDYYFMGWYRQAPGKERELVAAISLRSGRTYYADSVKGRFTISRDNAKNTVYLQMKSLKPEDTAVYYCAAESRGVGAYYYWGQGTQVTVSS” here?
The value was “high polyreactivity”.

With “QVQLVESGGGLVQAGGSLRLSCAASGFTFEENAMGWYRQAPGKERELVAAINWSGGNTYYADSVKGRFTISRDNAKNTVYLQMNSLKPEDTAVYYCAAEYRSWSWRMDYWGQGTQVTVSS” as the sequence, how does the “polyreactivity (PSR sort gate)” value read?
Its value is “high polyreactivity”.

Which “polyreactivity (PSR sort gate)” value does the source give for “QVQLVESGGGLVQAGGSLRLSCAASGFTFEKNAMGWYRQAPGKERELVAAISRGGSTYADSVKGRFTISRDNAKNTVYLQMNSLKPEDTAVYYCAADTVYIFSSAINGEFGYWGQGTQVTVSS” here?
The value was “low polyreactivity”.

Which “polyreactivity (PSR sort gate)” value does the source give for “QVQLVESGGGLVQAGGSLRLSCAASGFTFEKNAMGWYRQAPGKERELVAAITSGGSTYYADSVKGRFTISRDNAKNTVYLQMNSLKPEDTAVYYCNAYYTYRFNYWGQGTQVTVSS” here?
The value was “high polyreactivity”.

For “QVQLVESGGGLVQAGGSLRLSCAASGFTFEKYVMGWYRQAPGKDREFVAAITRSGGRTYYADSVKGRFTISRDNAKNTVSLQMNSLKPEDTAVYYCAAAFSRSDTGGGSSGQGTQVTVSS”, which “polyreactivity (PSR sort gate)” value is on record?
The value was “high polyreactivity”.

Which “polyreactivity (PSR sort gate)” value does the source give for “QVQLVESGGGLVQAGGSLRLSCAASGFTFERNTMGWYRPAPGKERELVATITRRGTSTYYADSVKGRFTISRDNAKNTVYLQMNSLKPEDTAVYYCARGQYSHRSQAGMDYWGQGTQVTVSS” here?
Its value is “high polyreactivity”.

For “QVQLVESGGGLVQAGGSLRLSCAASGFTFERYAMGSYRQAPGKERELVAAISSRGGGTYYADSVKGRFTISRENAKNTVFLQMNSLKPEDTAVYYCNRPYDYSYNYWGQGTQVTVSS”, which “polyreactivity (PSR sort gate)” value is on record?
The value was “high polyreactivity”.

Which “polyreactivity (PSR sort gate)” value does the source give for “QVQLVESGGGLVQAGGSLRLSCAASGFTFESYTMGWYRQAPGKESELVAAINSGTSTYYADSVKGRFTISRDNAKNTVYLQMNSLKPEDTAVYYCNARRYRRYRKYDYWGQGTQVTVSS” here?
The value was “high polyreactivity”.

Which “polyreactivity (PSR sort gate)” value does the source give for “QVQLVESGGGLVQAGGSLRLSCAASGFTFEVYAMGRYRQAPGKERELVAAITSSGGRTYYADSVKGRFTISRDYAKNTVYLQMNSLKPEDTAGYYCAAYVSYEYGYWGQGSQVTVSS” here?
Its value is “high polyreactivity”.

For “QVQLVESGGGLVQAGGSLRLSCAASGFTFEWNTMGWYRQAPGKERELVARINWSSGRTYYADSVKGRFTISRDNAKNTVYLQMNSLKPEDTAVYYCAASPYHSAYQNMDYWGQGTQVTVSS”, which “polyreactivity (PSR sort gate)” value is on record?
Its value is “high polyreactivity”.

Which “polyreactivity (PSR sort gate)” value does the source give for “QVQLVESGGGLVQAGGSLRLSCAASGFTFFAYPMGWYRQAPGKERELVAGISRSGGRTYYADSVKGRFTISRDNAKNTVYLQMNSLKPEDTAVYYCNAVVRRSYLLEYDFCGQGTQVTVSS” here?
The value was “high polyreactivity”.

For “QVQLVESGGGLVQAGGSLRLSCAASGFTFFDYVMGWYRQAPGKERELVAAISRNVGSTYYADSVKGRFTISRDNAKTTVYLQMNSLKPEDTAVYYCAAEPPPYEYDYWGQGTQVTVSS”, which “polyreactivity (PSR sort gate)” value is on record?
Its value is “high polyreactivity”.

Which “polyreactivity (PSR sort gate)” value does the source give for “QVQLVESGGGLVQAGGSLRLSCAASGFTFFEDNAMGWYRQAPGKERELVAAITSGGSTNYADSVKGRFTFSRDNAKNTVYLQMNSLKPEDTAVYYCAKDRVPLKTRFYYFPWGYDYWGQGTQVTVSS” here?
The value was “low polyreactivity”.

For “QVQLVESGGGLVQAGGSLRLSCAASGFTFFGYAMGWYRQAPGKERELVATISDTGGSTYADSVKGRFTISRDNAKNTVYLQMNSLKPEDTAVYYCNARSVFYSMDYWGQGTQVTVSS”, which “polyreactivity (PSR sort gate)” value is on record?
Its value is “low polyreactivity”.

For “QVQLVESGGGLVQAGGSLRLSCAASGFTFFIYVMGWYRQAPGKEREFVAAISSSGDSTYYADSVKGRFTSSRDNAKNTVYLQMNSLKPEDTAVYYCNAGDKVSSYWYDYWGQGTQVTVSS”, which “polyreactivity (PSR sort gate)” value is on record?
The value was “low polyreactivity”.

With “QVQLVESGGGLVQAGGSLRLSCAASGFTFFNYGRGWSRQAHGKERELVAAISSNGGLTYYADSVKGRFTISRDNAKNTVYLQMNSLKPEDTAVYYCATLYYGRVDYDYWGQGTQVTVSS” as the sequence, how does the “polyreactivity (PSR sort gate)” value read?
The value was “high polyreactivity”.

For “QVQLVESGGGLVQAGGSLRLSCAASGFTFFRIYAMGWYRQAPGKERELVAAISRSGSTYADSVKGRFTISRDNAKNTVYLQMNSLKPEDTAVYYCNTTLYADSVWYDYWGQGTQVTVSS”, which “polyreactivity (PSR sort gate)” value is on record?
The value was “high polyreactivity”.

Which “polyreactivity (PSR sort gate)” value does the source give for “QVQLVESGGGLVQAGGSLRLSCAASGFTFFRYAMGWYRQAPGKERELVAAISYSGGNTYYADSVKGRFTISRDNAKNTVYLQMNSLKPEDTAVYYCNAVHFWKYDYWGQGTQVTVSS” here?
Its value is “high polyreactivity”.

For “QVQLVESGGGLVQAGGSLRLSCAASGFTFFSNAMGWYRQAPGKERELVAAITSSGGSTYADSVKGRFTISRDNAKNTVYLQMNSLKPEDTAVYYCAADAEAPPGGFKEYDYWGHGTQVTVSS”, which “polyreactivity (PSR sort gate)” value is on record?
The value was “low polyreactivity”.

Which “polyreactivity (PSR sort gate)” value does the source give for “QVQLVESGGGLVQAGGSLRLSCAASGFTFFSNAMGWYRQAPGKERELVAAITSSGGSTYADSVKGRFTISRDNAKNTVYLQMNSLKPEDTAVYYCAADAQAPPGGFKEYDYWGQGTQVTVSS” here?
The value was “low polyreactivity”.

Which “polyreactivity (PSR sort gate)” value does the source give for “QVQLVESGGGLVQAGGSLRLSCAASGFTFFSNAMGWYRQAPGKERELVASITNDGSTDADSVKGRFTISRDNAKNTVYLQMNSLKPEDTAVYYCAADFYLWRLPVYAQRYFVRGDYWGQGTQVTVSS” here?
The value was “low polyreactivity”.

For “QVQLVESGGGLVQAGGSLRLSCAASGFTFFTYAMGWYRQAPGNERELVAAISSSGDRTYYADSVKGRFTISRDNAKNTVYLQMNSLKPEDTAVYYCAVYKYYHFYYWGQGTQVTVSS”, which “polyreactivity (PSR sort gate)” value is on record?
Its value is “high polyreactivity”.

For “QVQLVESGGGLVQAGGSLRLSCAASGFTFFYYVMGWYRQAPGKERELVAAISQHGGSTYYADSVKGRFTISRDNAKNTVYLQMNSLKPEDTAVYYSAASPVVNRRGTYGYWGQGTQVTVSS”, which “polyreactivity (PSR sort gate)” value is on record?
The value was “high polyreactivity”.

Which “polyreactivity (PSR sort gate)” value does the source give for “QVQLVESGGGLVQAGGSLRLSCAASGFTFGAYAMGSYRQAPGKERELVASINWSGGSTYYADSVKGRFTISRDYAMNTVYFQMNRLKPEDTAVYYCAARESYPGYGYDHWGQGTQVTVSS” here?
Its value is “low polyreactivity”.

For “QVQLVESGGGLVQAGGSLRLSCAASGFTFGDYAMGWYRQAHGKERELVAAINGRSGSTYYPDSVNGRFTISRDNAKNTVYLQMNSLKPEDTAVYYCATRWRLPSRSNFDYWGQGTQVTLSS”, which “polyreactivity (PSR sort gate)” value is on record?
Its value is “low polyreactivity”.

For “QVQLVESGGGLVQAGGSLRLSCAASGFTFGENAMGWYRQAPGKDRELVAAITSGDGTSYADSVKGRFTISRDNAKNTVYLQMNSLKPEDTAVYSCAADVNYYQHRLYYWGLGTQVTVSS”, which “polyreactivity (PSR sort gate)” value is on record?
The value was “low polyreactivity”.

For “QVQLVESGGGLVQAGGSLRLSCAASGFTFGFNDMGWYRQAPGKERELVAAITIGGTTNYADSVKGRFTISRDNAKNTVYLQMNSLKPEDTAVYSCAADTRVVYDEDYWGQGTQVTVSS”, which “polyreactivity (PSR sort gate)” value is on record?
Its value is “low polyreactivity”.

For “QVQLVESGGGLVQAGGSLRLSCAASGFTFGFYVMGWYRQAPGKERELVAAITVRAGSTYYADSVKGRFTISRDNAKNTVYLQMNSLKPEDTAVYYCAADSYRLYSSIAYYGMYSWGQGTQVTVSS”, which “polyreactivity (PSR sort gate)” value is on record?
The value was “high polyreactivity”.

For “QVQLVESGGGLVQAGGSLRLSCAASGFTFGGNVMGWYSQAPGKERELVAAISGAGSKYYADSVKGRFTISRDNAKNTVNLQMNSLKPEDTAVNYCAADDVARYLSGYDYWGQGTQVTVSS”, which “polyreactivity (PSR sort gate)” value is on record?
The value was “low polyreactivity”.

With “QVQLVESGGGLVQAGGSLRLSCAASGFTFGGYAMGWYIQAPGKERELVSAISGSGGRTYYADSVKGRFTISRDNAKNTVYLQMNSLKPEDTAVYYCATDGYWQSNGAFYYVARHGGYCGQGTQVTVSS” as the sequence, how does the “polyreactivity (PSR sort gate)” value read?
Its value is “low polyreactivity”.

For “QVQLVESGGGLVQAGGSLRLSCAASGFTFGHYAMGWYRQAPGKQRELVAAISYSGVRTYYADSVKGRFTISRDNAKNTVYLQMNSLKPEDTAVYYCNKYPAHYQTRRYDYWGQGTQVTVSS”, which “polyreactivity (PSR sort gate)” value is on record?
The value was “high polyreactivity”.

For “QVQLVESGGGLVQAGGSLRLSCAASGFTFGINAMGWSRQAPGKERELVASISSGSSTTYADSVKGRFTISRDNAKNTVYLQMNRLKPEDTAVYYCNARPFHIYWRYDYWGQGTQVTVSS”, which “polyreactivity (PSR sort gate)” value is on record?
Its value is “low polyreactivity”.

With “QVQLVESGGGLVQAGGSLRLSCAASGFTFGNYAMGWYRQAPGKERELVAVISYSTGSTYYADSVKGRFTISRDNAKNTVYLQMNSLKPEDTAVYYCAKRYRSYYQGYGYWGQGTQVTVSS” as the sequence, how does the “polyreactivity (PSR sort gate)” value read?
Its value is “high polyreactivity”.

— the nanobody polyreactivity screen of Harvey et al. (2022)
